From patent US20220227882A1 (TRUSTEES OF TUFTS COLLEGE, published 2022)

Experiments:
R482A = target: T1, R482A (Homo sapiens, UniProt P78325); assay: high-throughput flow cytometry, HEK293 cells with mutant ADAM8, high stringency; range in parentheses; closed box
T1 construct: expressed on HEK293 cells; also called human ADAM8 point mutant R482A
T1 sequence (ADAM8, looked up): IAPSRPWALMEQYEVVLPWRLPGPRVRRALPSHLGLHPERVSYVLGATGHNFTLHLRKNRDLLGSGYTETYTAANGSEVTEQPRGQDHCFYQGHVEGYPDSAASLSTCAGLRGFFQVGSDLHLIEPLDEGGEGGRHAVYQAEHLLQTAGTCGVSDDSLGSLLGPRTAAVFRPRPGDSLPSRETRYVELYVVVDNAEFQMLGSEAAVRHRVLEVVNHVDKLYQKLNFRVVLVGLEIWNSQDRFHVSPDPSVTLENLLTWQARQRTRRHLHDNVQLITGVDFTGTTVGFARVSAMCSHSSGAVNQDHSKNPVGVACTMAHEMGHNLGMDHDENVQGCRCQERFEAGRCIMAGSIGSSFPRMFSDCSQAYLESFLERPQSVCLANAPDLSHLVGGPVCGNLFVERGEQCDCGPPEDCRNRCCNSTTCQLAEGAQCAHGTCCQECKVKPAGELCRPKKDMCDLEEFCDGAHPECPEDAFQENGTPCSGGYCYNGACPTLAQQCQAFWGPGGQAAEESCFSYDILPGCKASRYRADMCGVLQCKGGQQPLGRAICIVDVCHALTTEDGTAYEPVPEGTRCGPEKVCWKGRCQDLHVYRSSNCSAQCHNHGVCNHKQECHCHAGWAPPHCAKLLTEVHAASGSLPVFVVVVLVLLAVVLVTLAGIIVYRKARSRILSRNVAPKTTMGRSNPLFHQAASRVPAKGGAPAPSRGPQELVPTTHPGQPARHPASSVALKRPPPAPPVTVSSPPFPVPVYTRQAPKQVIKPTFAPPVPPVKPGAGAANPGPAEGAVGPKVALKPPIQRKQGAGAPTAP
Description: (§1) A variety of experimental parameters were optimized for high-throughput flow cytometry including blocking buffer, and primary and secondary antibody concentrations, to identify the optimal conditions for screening. Through these studies ADP2 and ADP13 were determined to be high affinity binding antibodies.
(§2) Thus, for these studies antigen-binding fragments (Fabs) of ADP2 and ADP13, which bind with lower affinity than the full antibody, were generated. In addition, higher binding stringency conditions were tested, such as increased pH, salinity, and temperature, and/or increased washing, to weaken binding sufficiently to allow identification of critical binding residues in flow cytometry. The final experimental flow cytometry conditions were: primary antibody incubation with ADP2 Fab (0.50 μg/ml), ADP13 Fab (5.00 μg/ml) and Control Ab (0.16 μg/ml) for 60 minutes in flow cytometry buffer containing 10% goat serum in PBS (Ca²⁺ and Mg²⁺ free). […] Samples were washed three times after primary antibody incubation and twice after secondary antibody incubation with PBS (Ca²⁺ and Mg′ free). Next, HEK293 cells expressing WT or mutated ADAM8 proteins or EV DNA were incubated with ADP2 or ADP13 Fabs or Control Ab at their optimal concentrations. Fab binding was detected using Alexa Fluor 488-conjugated secondary antibodies and mean cellular fluorescence determined using the Intellicyt iQue flow cytometry platform. […] This counter-screen strategy facilitates the exclusion of mutants that are locally misfolded or that have an expression defect. Binding of each test Fab to each mutant clone in the alanine scanning library was determined, in duplicate, by high-throughput flow cytometry.

G445A = target: T2, G445A (Homo sapiens, UniProt P78325); assay: high-throughput flow cytometry, HEK293 cells with mutant ADAM8, high stringency; range in parentheses; dotted box
T2 construct: expressed on HEK293 cells; also called human ADAM8 point mutant G445A
T2 sequence (ADAM8, looked up): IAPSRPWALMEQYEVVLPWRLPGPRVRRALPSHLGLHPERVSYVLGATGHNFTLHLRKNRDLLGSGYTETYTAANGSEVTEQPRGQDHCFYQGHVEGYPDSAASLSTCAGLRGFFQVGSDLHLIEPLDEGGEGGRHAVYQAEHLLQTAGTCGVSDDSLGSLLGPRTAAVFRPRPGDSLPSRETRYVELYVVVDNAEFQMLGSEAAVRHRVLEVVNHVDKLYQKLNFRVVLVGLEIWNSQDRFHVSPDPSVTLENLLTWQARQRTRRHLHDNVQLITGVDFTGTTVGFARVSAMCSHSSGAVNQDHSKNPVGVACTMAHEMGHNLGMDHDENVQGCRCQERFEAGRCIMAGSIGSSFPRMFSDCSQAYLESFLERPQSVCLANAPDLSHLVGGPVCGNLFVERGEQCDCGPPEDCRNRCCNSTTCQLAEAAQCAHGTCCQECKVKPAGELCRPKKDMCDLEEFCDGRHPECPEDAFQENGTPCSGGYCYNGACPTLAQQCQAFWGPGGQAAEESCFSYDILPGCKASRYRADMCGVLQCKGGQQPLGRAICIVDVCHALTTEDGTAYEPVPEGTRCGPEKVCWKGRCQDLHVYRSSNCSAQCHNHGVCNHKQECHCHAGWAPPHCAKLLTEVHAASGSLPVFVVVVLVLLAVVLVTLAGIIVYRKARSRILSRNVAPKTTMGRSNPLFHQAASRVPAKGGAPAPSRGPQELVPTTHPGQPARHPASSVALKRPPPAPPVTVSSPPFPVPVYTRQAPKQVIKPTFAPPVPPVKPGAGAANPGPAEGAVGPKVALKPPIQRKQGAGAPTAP
Description: as §1, §2

B1: ADP13 Fab (Fab, V domains shown)
VH: EVQLQQSGPEMVKPGTSVKISCKASGYTFTDYYINWVKQSHGKSLEWIGDISPNIGGATYNPKFKGKAILTVDKSARTAYMELRSLTSEDSAVYCCTRGGSSYPYFYAMDYWGQGTSVTVSS
VL: DIVMSQSPSSLAVSVGEKVTMSCKSSQSLLYSSNQKKYLAWYQQKPGQSPKLLIYWASTRESGVPDRFTGSGSGTDFTLTISSVKAEDLAVYYCQQFYSYPYTFGGGTKLEINR
R482A
  Binding Reactivity (% WT): 8.3 % WT

B2: ADP2 Fab (Fab, V domains shown)
VH: EVKLVESGGGLVQPGGSLSLSCAASGFSFPDYYMSWVRQPPGKALEWLGFIRDSANGYTTEYIASVKGRFTFSRDNSQSILYLQMNALRAEDSATYYCARYSRYYGMDYWGQGTSVTVSS
VL: SIVMTQTPKILLVSAGDRVTITCKASQTVNYDVAWYQQKPGQSPKPVIYFASNRYTGVPDRFTGSGFGTDFTFTISTVQAEDLAVYFCQQDYSAPWTFGGGTKLEIK
G445A
  Binding Reactivity (% WT): 30.7 % WT
